T1: human progelatinase A (Homo sapiens, UniProt P08253)
T1 construct: obtained from the culture supernatant of T98G human glioblastoma cell line; made in house; host or cells: Natural (endogenous) secretion of the T98G human glioblastoma cell line, purified from the culture supernatant
T1 sequence (P08253 110-660): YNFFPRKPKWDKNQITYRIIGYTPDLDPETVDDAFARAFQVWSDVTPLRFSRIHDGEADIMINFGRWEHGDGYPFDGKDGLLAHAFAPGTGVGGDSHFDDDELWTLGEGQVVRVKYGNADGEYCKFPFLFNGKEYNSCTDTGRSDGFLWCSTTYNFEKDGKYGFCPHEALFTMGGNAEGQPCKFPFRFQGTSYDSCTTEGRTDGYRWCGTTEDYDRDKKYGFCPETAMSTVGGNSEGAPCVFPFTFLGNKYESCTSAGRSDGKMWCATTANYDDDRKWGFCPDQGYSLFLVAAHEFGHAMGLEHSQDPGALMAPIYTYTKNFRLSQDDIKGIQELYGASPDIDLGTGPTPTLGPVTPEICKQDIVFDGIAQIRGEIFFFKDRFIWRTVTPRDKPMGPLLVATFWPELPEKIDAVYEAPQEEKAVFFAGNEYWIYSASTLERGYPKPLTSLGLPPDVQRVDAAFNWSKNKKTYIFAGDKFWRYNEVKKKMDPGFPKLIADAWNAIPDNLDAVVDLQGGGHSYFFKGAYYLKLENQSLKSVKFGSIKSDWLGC

T2: gelatinase A (Homo sapiens, UniProt P08253)
T2 construct: made in house; host or cells: Natural (endogenous) secretion of the T98G human glioblastoma cell line
T2 sequence (P08253 110-660): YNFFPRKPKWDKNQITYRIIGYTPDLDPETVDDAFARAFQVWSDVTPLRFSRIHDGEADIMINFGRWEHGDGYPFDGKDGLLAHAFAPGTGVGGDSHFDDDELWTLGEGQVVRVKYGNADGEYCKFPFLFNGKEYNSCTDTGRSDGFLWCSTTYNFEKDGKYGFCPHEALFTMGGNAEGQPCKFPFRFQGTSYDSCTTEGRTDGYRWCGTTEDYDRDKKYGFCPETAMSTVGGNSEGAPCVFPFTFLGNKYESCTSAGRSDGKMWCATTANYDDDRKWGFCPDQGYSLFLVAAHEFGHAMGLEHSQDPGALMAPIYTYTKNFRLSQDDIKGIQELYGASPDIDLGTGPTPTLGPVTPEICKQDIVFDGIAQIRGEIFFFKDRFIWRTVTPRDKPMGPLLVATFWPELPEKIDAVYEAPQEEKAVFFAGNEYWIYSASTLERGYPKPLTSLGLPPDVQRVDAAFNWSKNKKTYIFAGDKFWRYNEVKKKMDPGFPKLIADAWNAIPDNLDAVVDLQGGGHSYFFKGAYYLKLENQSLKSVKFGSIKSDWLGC


Legend:
human progelatinase A = target: T1, human progelatinase A; assay: Reverse zymography of gelatinase A inhibitor on gelatine-containing SDS polyacrylamide gel; format: biochemical; details: 0.2 μg/lane protein; gel incubated with 1 μg/ml human progelatinase A and 1 mM APMA
From the text: The large triangle arrow represents 100-kDa inhibitor. Three small triangle arrows represent TIMP (28 kDa), unidentified 22-kDa inhibitor and TIMP-2 (20 kDa). The bands of negative image (white lines) indicate gelatine degradation activity secreted by tumor cells. b represents the results of non-reductive SDS-PAGE of purified 100-kDa inhibitor, while c represents the results of SDS-PAGE (lanes 1 to 3) and the reverse zymograms of 100-kDa inhibitor (lane 1, 2, 4 and 5) and human TIMP (lane 3 and 6). Equal amount (0.2 μg/lane) of the protein was analyzed under reductive condition (lanes 2 and 5) and non-reductive condition (lane 1, 3, 4 and 6). […] 100-kDa inhibitor (200 μg) was incubated with 0.3 μg of endoproteinase Lys-C (Sigma, St. Louis, Mo.) for 60 minutes at 30° C. in 60 μl of 50 mM Tris-HCl (pH 7.5) containing 2M urea and 1M NaCl, and a part of digestion products were subjected to electrophoresis. As a result, a peptide from 439V through 687 k of the amino acid sequence in FIG. 1 was obtained.
The supernatant of EJ-1 cell culture which had been incubated for 2 days in serum-free RPMI1640 medium was used for the preparation. The reverse zympgraphy of gelatinase A inhibitor was conducted on polyacrylamide gel containing 0.1% SDS and 1 mg/ml of gelatine by a modified Herroh's method. […]

gelatinase A = target: T2, gelatinase A; assay: Hydrolysis of synthetic peptide βAP10-20 by activated gelatinase A (reverse phase HPLC), enzyme kinetic analysis; format: biochemical; details: hydrolysis of β-AP10-20 by APMA/stromelysin activated gelatinase A; from slope of Dixon plot (1/v vs (I))
Procedure: (§1) FIGS. 5 (A) and (B) show the degradation of synthetic peptide βAP10-20by gelatinase A. By heparin affinity chromatography according to the method by (Kelkenbrock), TIMP-2-free progelatinase A was isolated from TIMP-2 binding form. Proenzyme (1 μg) was activated by incubating for 1 hour at 37° C. in 20 mMTris-HCl (pH 7.5) containing 10 mMCa^2+ with 1 mMAPMA and 0.25 μg of rat stromelysin. Then, the activated enzyme was incubated for 6 hours at 37° C. in the absence or presence of 5 μg of 100-kDa APP in 50 μl of Tris-HCl/Ca^2+ buffer with 20 nmol (28 μg) of synthetic peptide β-AP10-20 (cf. FIG. 2D). Then the mixture was admixed with 0.5 ml of 0.05% trifluoroacetic acid (TFA), and loaded to Cosmosil 5C18 reverse phase HPLC column (4.6×150 mm) (Nacalai Tesque, Kyoto, Japan). The column was eluted at the flow rate of 0.5 ml/min with 15 ml of 0 to 80% linear gradient acetonitrile in 0.05% TFA. The amino acid sequence of the […] was analyzed by a protein sequencer. As previously reported, rat stromelysin was purified with the proenzyme form and activated by APMA. Under the condition described above, stromelysin hardly hydrolyzed βAP10-20.
(§2) FIG. 5(A) and (B) represent enzyme kinetic analysis of the inhibition of gelatinase A activity by 100-bDa APP. […] The maximum concentration of 100-kDa APP ([…]) corresponded to about 910 nM. […]

[1] = substrate: CC(C)C[C@H](NC(=O)[C@H](CCCCN)NC(=O)[C@H](CCC(N)=O)NC(=O)[C@H](Cc1c[nH]cn1)NC(=O)[C@H](Cc1c[nH]cn1)NC(=O)[C@@H](NC(=O)[C@H](CCC(=O)O)NC(=O)[C@@H](N)Cc1ccc(O)cc1)C(C)C)C(=O)N[C@H](C(=O)N[C@@H](Cc1ccccc1)C(=O)N[C@@H](Cc1ccccc1)C(=O)O)C(C)C; assay: as above; format: biochemical, human; details: other: hydrolysis of βAP10-20 by activated gelatinase A; Lineweaver-Burk plots, 30 to 400 μM substrate; pH 7.5
Procedure: as §1, §2

Molecule | inhibitor bands on the reverse zymograms (human progelatinase A) | Ki (gelatinase A) [µM] | Km [1] [µM] | Vmax [1] [nmol/h]
100-kDa APP: secretory form of APP (gelatinase A inhibition protein), 100k, from EJ-1 culture fluid; 18L through 687K of APP770 | markedly stained gelatine bands (inhibitor bands) | 0.04 |  | 
human TIMP: known gelatinase inhibitor (28 kDa) used as comparison in reverse zymography [reference compound] | markedly stained gelatine bands (inhibitor bands) |  |  | 
gelatinase A (Homo sapiens) (protein, made in house; host or cells: Natural (endogenous) secretion of the T98G human glioblastoma cell line) YNFFPRKPKWDKNQITYRIIGYTPDLDPETVDDAFARAFQVWSDVTPLRFSRIHDGEADIMINFGRWEHGDGYPFDGKDGLLAHAFAPGTGVGGDSHFDDDELWTLGEGQVVRVKYGNADGEYCKFPFLFNGKEYNSCTDTGRSDGFLWCSTTYNFEKDGKYGFCPHEALFTMGGNAEGQPCKFPFRFQGTSYDSCTTEGRTDGYRWCGTTEDYDRDKKYGFCPETAMSTVGGNSEGAPCVFPFTFLGNKYESCTSAGRSDGKMWCATTANYDDDRKWGFCPDQGYSLFLVAAHEFGHAMGLEHSQDPGALMAPIYTYTKNFRLSQDDIKGIQELYGASPDIDLGTGPTPTLGPVTPEICKQDIVFDGIAQIRGEIFFFKDRFIWRTVTPRDKPMGPLLVATFWPELPEKIDAVYEAPQEEKAVFFAGNEYWIYSASTLERGYPKPLTSLGLPPDVQRVDAAFNWSKNKKTYIFAGDKFWRYNEVKKKMDPGFPKLIADAWNAIPDNLDAVVDLQGGGHSYFFKGAYYLKLENQSLKSVKFGSIKSDWLGC |  |  | 130 | 3.9

Reference: patent publication US5550216A, “Gelatinase A inhibitor, and analytical reagent thereof for the determination of gelatinase A” (Oriental Yeast Co., Ltd., priority 1993, dated 1996)
